Test results from patent publication US20080220450A1, “Population Based Prediction Methods for Immune Response Determinations and Methods for Verifying Immunological Response Data” (Danisco US, Inc., Genencor Division, priority 2004, published 2008).

Target: HLA-DR6(13) (human)
Test: competition assay against a standard peptide on purified HLA class II

IC50: 0.69 nM
Substance: B. amyloliquifaciens subtilisin BPN' Y217L epitope peptide, amino acids 70-84 (from UniProt P00782 177-191)
